In the data set the target is T1, FLAG-TCF4, full length human TCF4 expressed from pFLAG-CMV-4, Q9NQB0.
T1 chain: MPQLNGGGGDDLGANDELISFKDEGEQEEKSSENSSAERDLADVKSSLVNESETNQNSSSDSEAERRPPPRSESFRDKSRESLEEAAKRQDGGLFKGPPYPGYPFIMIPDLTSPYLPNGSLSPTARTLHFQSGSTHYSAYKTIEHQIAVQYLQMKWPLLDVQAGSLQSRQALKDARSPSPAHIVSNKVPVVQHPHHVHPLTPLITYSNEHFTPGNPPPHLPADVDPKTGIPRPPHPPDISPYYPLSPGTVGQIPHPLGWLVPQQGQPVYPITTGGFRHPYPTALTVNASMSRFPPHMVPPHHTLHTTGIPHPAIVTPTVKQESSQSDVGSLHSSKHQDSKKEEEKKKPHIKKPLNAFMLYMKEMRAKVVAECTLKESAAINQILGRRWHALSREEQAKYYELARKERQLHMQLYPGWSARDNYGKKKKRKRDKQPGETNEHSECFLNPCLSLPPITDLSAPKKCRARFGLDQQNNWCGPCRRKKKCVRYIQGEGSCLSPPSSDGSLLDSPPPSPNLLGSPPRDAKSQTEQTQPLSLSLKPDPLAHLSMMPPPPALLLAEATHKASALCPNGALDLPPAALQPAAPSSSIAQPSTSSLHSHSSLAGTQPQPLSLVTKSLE

B1: HA-TNIK, wild-type human TNIK full length expressed from pCIneo-HA-TNIK (protein)
chain: MASDSPARSLDEIDLSALRDPAGIFELVELVGNGTYGQVYKGRHVKTGQLAAIKVMDVTGDEEEEIKQEINMLKKYSHHRNIATYYGAFIKKNPPGMDDQLWLVMEFCGAGSVTDLIKNTKGNTLKEEWIAYICREILRGLSHLHQHKVIHRDIKGQNVLLTENAEVKLVDFGVSAQLDRTVGRRNTFIGTPYWMAPEVIACDENPDATYDFKSDLWSLGITAIEMAEGAPPLCDMHPMRALFLIPRNPAPRLKSKKWSKKFQSFIESCLVKNHSQRPATEQLMKHPFIRDQPNERQVRIQLKDHIDRTKKKRGEKDETEYEYSGSEEEEEENDSGEPSSILNLPGESTLRRDFLRLQLANKERSEALRRQQLEQQQRENEEHKRQLLAERQKRIEEQKEQRRRLEEQQRREKELRKQQEREQRRHYEEQMRREEERRRAEHEQEYIRRQLEEEQRQLEILQQQLLHEQALLLEYKRKQLEEQRQAERLQRQLKQERDYLVSLQHQRQEQRPVEKKPLYHYKEGMSPSEKPAWAKEVEERSRLNRQSSPAMPHKVANRISDPNLPPRSESFSISGVQPARTPPMLRPVDPQIPHLVAVKSQGPALTASQSVHEQPTKGLSGFQEALNVTSHRVEMPRQNSDPTSENPPLPTRIEKFDRSSWLRQEEDIPPKVPQRTTSISPALARKNSPGNGSALGPRLGSQPIRASNPDLRRTEPILESPLQRTSSGSSSSSSTPSSQPSSQGGSQPGSQAGSSERTRVRANSKSEGSPVLPHEPAKVKPEESRDITRPSRPASYKKAIDEDLTALAKELRELRIEETNRPMKKVTDYSSSSEESESSEEEEEDGESETHDGTVAVSDIPRLIPTGAPGSNEQYNVGMVGTHGLETSHADSFSGSISREGTLMIRETSGEKKRSGHSDSNGFAGHINLPDLVQQSHSPAGTPTEGLGRVSTHSQEMDSGTEYGMGSSTKASFTPFVDPRVYQTSPTDEDEEDEESSAAALFTSELLRQEQAKLNEARKISVVNVNPTNIRPHSDTPEIRKYKKRFNSEILCAALWGVNLLVGTENGLMLLDRSGQGKVYNLINRRRFQQMDVLEGLNVLVTISGKKNKLRVYYLSWLRNRILHNDPEVEKKQGWITVGDLEGCIHYKVVKYERIKFLVIALKNAVEIYAWAPKPYHKFMAFKSFADLQHKPLLVDLTVEEGQRLKVIFGSHTGFHVIDVDSGNSYDIYIPSHIQGNITPHAIVILPKTDGMEMLVCYEDEGVYVNTYGRITKDVVLQWGEMPTSVAYIHSNQIMGWGEKAIEIRSVETGHLDGVFMHKRAQRLKFLCERNDKVFFASVRSGGSSQVFFMTLNRNSMMNW
With B1, the “serine phosphorylation of TCF4 (immunoprecipitation with anti-TCF4, immunoblot with anti-phospho-serine antibody)” value is “the serine phosphorylation band of TCF4 was detected”.

The values are drawn from patent US20090215081.
